Measured values as given in the nanobody polyreactivity screen of Harvey et al. (2022).

assay: yeast display, Sf9 membrane polyspecificity reagent, FACS + sequencing; frameworks hold sequencing errors
Outline: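 Using colony PCR, genes from sorted yeast display clones were amplified, then sequenced on MiSeq at 2 × 250 and filtered by CDR length. The clones had been stained with 10% biotinylated, detergent-solubilized Sf9 membrane reagent for 1 hour at 4 °C and sorted by FACS into low and high (top ~1%) gates on anti-HA and streptavidin fluorescence. Polyreactivity labels come from the gate of origin.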

Sequence | polyreactivity (PSR sort gate)
QVQLVESGGGLVQAGGSLRLSCAASGSIFKQNNMGWYRQAPGKERELVAAISSGGSTYYADSVKGRFTISRDNAKNTVYLQMNSLKPEDTAVYYCAKYYDWDYYLPLEGDYWGQGTQVTVSS | low polyreactivity
QVQLVESGGGLVQAGGSLRLSCAASGSIFVRYDMGWYRQAPGKERELVAAISWNGGRTYYADSVKGRFTISRDNAKNTVYLQMNSLKPEDTAVYYCNAVSKGLGSGLDYWGQGTQVTVSS | high polyreactivity
QVQLVESGGGLVQAGGSLRLSCAASGRIFNVYAMGWYRQAPGKERELVAAITYSGGSTYYADSVKVRITISRDNAKNSVYLQMIFLKPEDTAVYYCNARSSKRSSRGYDYWGQGTQVTVSS | high polyreactivity
QVQLVESGGGLVHAGGSLRLSCAASGRIFYQYAMGWYRQAPGKERELVAAIRYRDDGTYYADSVKGRLTISRDNAKNTVYLQMNSLKPEDTAVYYCAGKQWGRYGYWGQGTQVTVSS | high polyreactivity
QVQLVESGAGLVQAGGSLRLSCAASGFTFQYYAMGWYRQAPGKERELVATISSTDNTYYADSVKGRFTISRDNAKNTVYLQMNSLKPEDTAVYYCAARPTYRRRQGRGYWGQGTQVTVSS | high polyreactivity
QVQLVESGGGLVQAGGSLRLSCAASGSTFAFNAMGWYRQAPGKERELVAGITRSGGRTYFADSVKGRFTISRDYAKNTVYLQMNSLKPEDTAVYYCAARRSGSKSGLFDYWGQGTQVTVSS | low polyreactivity
QVQQQESGGGLVQAGGSLRLSCAASGTIFQLTVMGRYRQAPGKDRELVASIDYGGNTNYADSVKGRFTISRDNAKNTVYLQMNCRKPEDTAVYYCAASSDSWTTHPYWGQGTQVTVRS | low polyreactivity
QVQLVESGGGLVQAGGSLRLSCAASGYTFPRYTMGWYRQAPGKERELVAAINWSGGSTYYADSVKGRFTISRDNAKNTVYLQMNSLKPEDTAVYYCNKAYVSRYDYWGQGTQVTVSS | high polyreactivity
HDQHVESGGGLVQAGGSLRLSCAASGRIYGSTMGWYRQAPGKERELVAAITRNGGSTYYADSVKGRFTISRDNSKNTVYLQMNSVKPEDTEVYYCAARNAFGTYYYWGQGTQVNVSS | high polyreactivity
QVQLVESGGGLDQAGGSLRLSCAASGFTFWRYAMGWYRQAPGKERELVAAISWSGGSTYYADSVKGRFTISRDNAKNTVYLQMNSLKPEDTAVYYCTAQYGSRSYRYGYWGQGTQVTVSS | high polyreactivity
QVQLVESGGGLVQAGGSLRLSCAASGSTSVGNAMGWYRQAPGKERELVAAMSRIGGTTYYADSVKGRFTISRDNAKNTVYLQMNSLKPEDTAVYYCNVLKRYWSGRVDYWGQGTQVTVSS | high polyreactivity
QVQLVESGGGLVQAGGSLRLSCAASGRIFSIYAMGWYRQAPVKERELVAAISKRGGSTSYADSVKGRFTISRDNAKNTVYLQMNSLKPEDTAVYYCNARGWIPARGWDDYYWGQGTQVTVSS | high polyreactivity
QVQLVESGGGLVQAGRSLRLSFADSGVIVTSNAMGWYRQAPGKEREFVADITSSDSTYYADSVKGRFTISRDNAKNTVYLQMNSLKPEDTAVYYCAARGTTVRAYGYGFGYWGQGTQVTVSS | low polyreactivity
EVQLVETGGGLVQAGGSLRLSCAPSGFNFGVYAMGCYRQEPGKERELFAAISTTVGSTYYADSVKWRFTISRDNEKNTVYLQMTSLKPEDTAVYYCATGWSNCGQGTQVTVSS | low polyreactivity
QVQLVESGGGLVQAGGSLRLSCAASGYIFNYYGMGWYRQAPGKDRELVATISRGASTNYADSVKGRFTISRDNARNTVYFQMNTLKPEDTAVYYCAYWGQRTQVTVSS | low polyreactivity
QVQLVESGGGLVQAGGSLRLSCAASGSIFYPYAMGWYRQAPGKERELVAAISYSGGITYYADSVKGRFTISRDNAKNTVYLQMNSLKPEDTAVYYCNKLIYFKPAGSHDYWGQGTQVTVSS | high polyreactivity
QVQLVESGGGLVQAGGSLRLSCAASGRTFIYYAMGWYRQAPGKERELVASITTGGRTYYADSVKGRFTISRDNAKNTVYLQMNSLKPEDTAGYYCAAVRRIRRPRYGYWGQGTQVTVSS | high polyreactivity
QVQLVESGGGLVQAGGSLRLSCAASGFTFYLYAMGWYRQAPGKERELVAAISSGSTTYYADSVKGRFTISRDNAKNTVYLQMNSLKPEDTAVYYCNAYYVNYVSNYEYWGQGTQVTVSS | high polyreactivity
QVQLVESGGGLVQAGGSLRLSCAASGRILYPYAMGGYRQAPGKERELVAAITFIGGSTYYADSVKGRFTISRDNAKNTVYLQMNSLKPEDTAVYYCNAKPHRPSLLRWRIGNYWGQGTQVTVSS | high polyreactivity
QVQLVESGGGLVQAGGSLRLSCAASGGIFYHYTMGWYRQAPGKERELVASIRGSGGRTYYADSVKGRFTLSRDNAKNTVDLQMNSLKPEDTAVYYCNARGSWYQPTYDYWGQGTQVTVST | high polyreactivity
QVQLVESGGGLVQAGGSLRLSCAASGYIFGIYAMGWYRQAPGKERELVAAISTSGGSKYYADSVKGRFTISRDTAKNTVYLQMNSLKPEDTAVYYCAASRPSPRPRYGYWGQGTQVTVSS | high polyreactivity
QVQLVESGGGLVQAGGSLRLSCAASGFIFNKYAMGWYRQAPGKERQLVATIRRDGSTNYADSVKGRFTISRDNAKNTVYLQMNSLKPEDTAVYYCAVRPYYWSRDYYWGQGTQVTVSS | high polyreactivity

Sequence | polyreactivity (PSR sort gate)
QVHLVESGGGLVQAGGSLRLSCAASGRIFYTNAMGWYRQAPGKERELVAVISWGGDTTYYADSVKGRFTISRDNAKNTVSLQMNSLKPEDTEVYYCAARSKYTHSRQSDYWGQGTQVTVSS | low polyreactivity
QVQLVESGGGLVQAGGSLRLSCAASGRTLASNAMGWFRQSPGKERELVAAINRGGSTYYADSVKGRFTISRDNAMNTVYLQMNSLKPEDTAVYYCAVDRYRYPFDYWGQGTQVTVSS | low polyreactivity
QVQLVESGGGLVQAGGSLRLSCAASGRTLSTNGMGWYRQAPGKERELVATITRRGGRTYYADSVKGRFTISRDNAKNTVYLQMNSLKPEDTAVYYCATEQADRRVTYNYWGQGTQVTVSS | high polyreactivity
QVQLVESVGVLDQAGGSLRLSCAASGFTFVRYAMGWYRQAPGKERELVAAISGSGGRTYYADSVKGRFTISRDTAKNTVYLQLNSLKPEDTAVYYCAAVYLVTRGARYEYWGQGTQVTVSS | high polyreactivity
QVQLVESGGGLVQAGGSLRLSCAASGSIFRRFAMGWYRQAPGKEREFVAAISRSSDNTSYADSVKGRFTISRDNAKNTVYLQMNSLKPEDTAVYYCNADASWYGYWYYYWGQGTQVTVSS | low polyreactivity
QVQLVESGGGLVQAGGSIRLSCAASGSTFRYYTMGWYRQAPGKERELVATITRDGRTYYADSVKGRFTISRDNAKNTVYLQMYSLKPEDTAVYYCNVRRAFSGWRGYDYWGQGTQVTVSS | high polyreactivity
QVQLVESGGGLVQAGGRLRLSCADSGRTYRKYAIGWYRQAPGKEMDMVAAISWSGGSTYYANSVKGRFTISRDNAKNTVYLQMNSLKPEDTAVYYCAAVPVHTGSLYWGFTTGYDYWGQGTQVTVSS | low polyreactivity
QVQLVESGGGLVQAGGSLRLSCAASGFIFVYYAMGWYRQAPGKERELVAAITWRGGSTNYADSVKGRFTISRDNAKNTVYLQMNSLIPEDTAVYYCAAYSVWGGSYLALDYWGQGSQVTVSS | low polyreactivity
QVQLVESGGGLVQAGGSLRLSCAASGRTFTPYTMGWYRQAPGKEREFVAAITVRGGSTYYADSVKGRFTISRDNAKNTVYLQMNSLKPEDTAVYYCAASYVSYRKRDDYWGQGTQVTVSS | high polyreactivity
QVQLVESGGGLVQAGGSLRLSCAASGSIFRGNTMGWYRQAPGKERELLAAINWTGGSTYYADSVKGRFTISRDNAKYTVYLQMNSLKPEDTAVYYCAARKFTSYYWGRSYGYWGQGTQVTVSS | high polyreactivity
QVQLVESGGGLVQAGGSLRLSCAASGSIFEDNVMGWYRQAPGKEREFVADITAIGGSTYYADSVKGRFTISRDNAKNTVYLQMNSLKPEDTAVDYCAAGFYVDYQLYEYWGQGTQVTVSS | high polyreactivity
QVQLVESGGGLVQAGGSLRLSCAASGFIFFRNAMGWYRQAPGKERELVAAISRSGGITYYADSVKGRFTISRDNAKNTVYLQMNSLKPEDTAVYYCNAAKASREQWTSFDYWGQGTQVTVSS | high polyreactivity
QVQIVESGGGLVQAGGSLRLSCAASGRISVFNAMGWYRQAPGKERELVAAITSGGSTNYADSVKGRFTISRDNAKNTVYLQMNSLKPEDTAVYYCNADVYHSHEPHYDYWGQGTQVTVSS | low polyreactivity
QVQLVESGGGLVQAGGSLRLSCAASGSIFYSNAMGWYRQAPGKERELVAAITVGGGRTYYADSVKGRFTISRDNAKYTVYLQMNSLNPEDTAVYYCAADSHASTYDYWGQGTQVTVSS | low polyreactivity
QVQLVESGGGLVQAGGSLRLSCAASGFIFSYYAMGWYRQAPGKERELVAAISSSGGTTYADSVKGRFTISRDNAKNTVYLQMNSLKPEDTAVYYCARVQYWFYKPMYYWGQGTQVNVSS | high polyreactivity
QVQLVESGGGLVQAGGSLRLSCAASGRIFGYYTMGWYRQAPGKERELVAGITRRGGRTYYADSVKGRFTISRDNAKNTVYLQMNSLKPEDTAVYYCDVRSGVNFYYWGQGTQVTVSS | high polyreactivity
QVQLVESGGGLVQAGGSLLLSCAASGSTFYYNAMGWYRQATGKERELVARISRSGGSTYADSVKGRFTISRDNAKNTVYLQMNSLKPEDTAVYYCNADAYGTPEFTSYAVRYDYWGQGTQVTVSS | low polyreactivity
QVQLVESGGGLVHAGGSLRLSCAASGRILVDYAMGWYRQAPGKERELVAAITSTGGTTYYADSVKGRFTISRDNAKNTVYLQMNSLKPEDTAVYYCAAKRQDSWGGTYGYWGQGTQVTVSS | low polyreactivity
QDQLVESVVGLVQAGGSLSLSCDSSARTFWYNAMGCYRQAPGKEREFVAAISSSGGTTYYADSVKGRFTISRDNAKNTVYLQMNSLKPEDTAVYYCAKRFSLLSTVRWGRYNYWGQGTQVTVSS | high polyreactivity
QVQLVESGGGLVQAGGSLRLSCAASGSTFSPYAMGWYRQAPGKERELVAAITRSGSSTYYADSVKGRFTISRDNAKNTVYLQMNSLKPEDTAVYYCAADTGVTRSYRYTSWRIKYESWGQGTQVTVSS | low polyreactivity
QVQLVESGGGLVQAGGSLRLSCAAYGFTFAFYALGRYRQSPGKERELVAAITGSGGSTYYADSVKGRFTISRDNSKNTVYLQMNSLKPEDTAVYYCNTYTYYSRMDYWGQGTQVTVSS | high polyreactivity
